Measurements published in article PMC7272391.
Where “and” joins values, the source holds several entries; their conditions need not be identical. Equal values may be shown once.

Assays:
[1] = biological target: human neonatal Fc receptor (human) (UniProt P55899); experiment: SPR; BIAcore chip with immobilised anti-β2-microglobulin antibody capturing human FcRn; antibody diluted >5000-fold in assay buffer and injected at 0.15625-2.5 μg/mL; bivalent analyte model
[2] = biological target: human Fc-gamma receptor IIb (human) (UniProt P31994); experiment: SPR; BIAcore chip with immobilised anti-His antibody capturing His-tagged human FcγRIIa, IIb, IIIa(F), IIIa(V), IIIbNA1 or IIIbNA2; antibody exchanged into assay buffer and injected at 0.125-4.0 mg/mL; steady state affinity model
Chain of UniProt P31994 (P31994 43-310): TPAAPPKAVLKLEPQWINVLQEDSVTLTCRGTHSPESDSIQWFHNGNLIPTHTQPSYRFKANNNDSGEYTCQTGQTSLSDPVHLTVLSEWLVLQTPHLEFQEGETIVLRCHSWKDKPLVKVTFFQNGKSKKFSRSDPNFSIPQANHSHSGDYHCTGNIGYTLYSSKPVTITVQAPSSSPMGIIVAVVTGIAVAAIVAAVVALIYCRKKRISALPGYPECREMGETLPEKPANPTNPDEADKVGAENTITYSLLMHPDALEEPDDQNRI

[3] = biological target: human Fc-gamma receptor IIa (human) (UniProt P12318); experiment: as above
Chain of UniProt P12318 (P12318 34-317): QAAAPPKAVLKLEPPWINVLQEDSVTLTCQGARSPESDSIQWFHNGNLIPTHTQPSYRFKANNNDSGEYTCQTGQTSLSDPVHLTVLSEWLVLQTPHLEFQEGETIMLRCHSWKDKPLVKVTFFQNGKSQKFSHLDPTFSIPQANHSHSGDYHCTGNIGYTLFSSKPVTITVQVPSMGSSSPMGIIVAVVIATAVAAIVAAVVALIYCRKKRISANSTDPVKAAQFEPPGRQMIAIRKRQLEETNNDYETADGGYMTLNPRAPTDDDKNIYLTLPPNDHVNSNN

[4] = biological target: human Fc-gamma receptor IIIa(F) (human) (UniProt P08637); experiment: as above
Chain of UniProt P08637 (P08637 17-254): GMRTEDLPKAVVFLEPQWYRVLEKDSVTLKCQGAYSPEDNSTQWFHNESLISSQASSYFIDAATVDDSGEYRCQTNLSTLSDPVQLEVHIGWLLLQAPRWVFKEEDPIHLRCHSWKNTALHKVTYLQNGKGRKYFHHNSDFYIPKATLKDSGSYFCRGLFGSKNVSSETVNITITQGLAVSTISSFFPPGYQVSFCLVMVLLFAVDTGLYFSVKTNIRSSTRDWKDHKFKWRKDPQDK

[5] = biological target: human Fc-gamma receptor I (human) (UniProt P12314); experiment: SPR; BIAcore chip with immobilised anti-His antibody capturing His-tagged human FcγRI; antibody diluted >5000-fold in assay buffer and injected at 0.125-4.0 μg/mL; 1:1 Langmuir binding model
Chain of UniProt P12314 (P12314 16-374): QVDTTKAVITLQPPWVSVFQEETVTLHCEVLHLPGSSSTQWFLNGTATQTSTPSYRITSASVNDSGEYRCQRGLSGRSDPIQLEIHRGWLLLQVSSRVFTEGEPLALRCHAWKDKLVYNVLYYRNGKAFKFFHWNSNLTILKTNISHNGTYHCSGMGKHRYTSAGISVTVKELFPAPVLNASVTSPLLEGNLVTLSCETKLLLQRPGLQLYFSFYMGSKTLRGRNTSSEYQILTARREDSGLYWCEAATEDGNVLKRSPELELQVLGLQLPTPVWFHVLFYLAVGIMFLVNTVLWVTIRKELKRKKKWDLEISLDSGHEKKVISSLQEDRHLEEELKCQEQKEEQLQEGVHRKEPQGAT

Chain of UniProt P55899 (P55899 24-365, chain 1 of 2): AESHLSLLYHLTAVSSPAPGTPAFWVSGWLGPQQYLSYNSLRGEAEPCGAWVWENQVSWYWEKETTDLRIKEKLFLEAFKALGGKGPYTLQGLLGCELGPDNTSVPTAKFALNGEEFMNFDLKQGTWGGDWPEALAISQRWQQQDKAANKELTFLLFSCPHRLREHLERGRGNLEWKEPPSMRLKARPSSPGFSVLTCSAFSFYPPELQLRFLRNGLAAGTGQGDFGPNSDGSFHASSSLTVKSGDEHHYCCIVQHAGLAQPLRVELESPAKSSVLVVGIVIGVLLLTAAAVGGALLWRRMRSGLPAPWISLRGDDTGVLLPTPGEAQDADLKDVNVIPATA
Chain of UniProt P55899 (P61769 21-119, chain 2 of 2, further chain): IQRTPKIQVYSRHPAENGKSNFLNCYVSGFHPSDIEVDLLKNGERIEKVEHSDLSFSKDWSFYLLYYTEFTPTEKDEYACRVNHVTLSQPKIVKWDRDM

Substance: FKB327 (antibody)
- Kd [1]: 0.0664 µM and 0.0759 µM
- Kd [2]: 13.8 µM and 15.7 µM
- Kd [3]: 7.65 µM and 8.47 µM
- Kd [4]: 1 µM
- Kd [5]: 0.000382 µM and 0.000436 µM
